Data: US7691806B2, “Repeat sequence protein polymer active agent congjugates, methods and uses” (priority 2003, dated 2010)

Tested on: Human dermal fibroblasts
Test: Fibroblast cell survival after UVB exposure (MTT assay)
Assay type: cell-based
Conditions: UVB approximately 50 mj/cm^2, treated after exposure, MTT 48 hours later
Source text: Construction, analysis and verification of the SELP47K-P4 (SEQ. ID. NO. 36) conjugate proceeded as follows. SELP constructs in which all polymer subunits contain additional P4 (ALSYP) peptide sequences were made as follows: Artificial gene synthesis was used to create a 2 subunit version of the desired construct in which each identical subunit contains a unique non-palindromic restriction site. Specifically, SELP subunits contained either BBI derived P4 sequences (Seq ALSYP) incorporated in two places per subunit, flanking the silk region, incorporated between the C-terminal end of the silk region and the N-terminal end of the elastin region. A BsgI restriction enzyme cleavage site was designed within each subunit. Gene construction was carried out by Blue Heron Biotechnology (Bothell, Wash.). […] Resulting modified SELP monomers as well as plasmid vector were purified from agarose gels and concentrated using a Spin Vac. Monomers were self ligated using T4 DNA ligase (New England Biolabs) as per manufacturer's instructions overnight at 16 C. Original purified vector was added to ligation mix with additional fresh ligase and incubated at 16 C for an additional 24 hrs. Ligation mix was used to transform E. coli TOP10 cells (Invitrogen) as per manufacturer's instructions. Resulting transformants were used to inoculate culture tubes containing 5 ml Luria broth and appropriate antibiotic. […]

B1: SELP47K-P4 (protein)
chain: MDPVVLQRRDWENPGVTQLNRLAAHPPFASDPMGAGAGSGAGAGSALSYPGVGVPGVGVPGVGVPGVGVPGKGVPGVGVPGVGVPGVGVPALSYPGAGAGSGAGAGSGAGAGSGAGAGSALSYPGVGVPGVGVPGVGVPGVGVPGKGVPGVGVPGVGVPGVGVPALSYPGAGAGSGAGAGSGAGAGSGAGAGSALSYPGVGVPGVGVPGVGVPGVGVPGKGVPGVGVPGVGVPGVGVPALSYPGAGAGSGAGAGSGAGAGSGAGAGSALSYPGVGVPGVGVPGVGVPGVGVPGKGVPGVGVPGVGVPGVGVPALSYPGAGAGSGAGAGSGAGAGSGAGAGSALSYPGVGVPGVGVPGVGVPGVGVPGKGVPGVGVPGVGVPGVGVPALSYPGAGAGSGAGAGSGAGAGSGAGAGSALSYPGVGVPGVGVPGVGVPGVGVPGKGVPGVGVPGVGVPGVGVPALSYPGAGAGSGAGAGSGAGAGSGAGAGSALSYPGVGVPGVGVPGVGVPGVGVPGKGVPGVGVPGVGVPGVGVPALSYPGAGAGSGAGAGSGAGAGSGAGAGSALSYPGVGVPGVGVPGVGVPGVGVPGKGVPGVGVPGVGVPGVGVPALSYPGAGAGSGAGAGSGAGAGSGAGAGSALSYPGVGVPGVGVPGVGVPGVGVPGKGVPGVGVPGVGVPGVGVPALSYPGAGAGSGAGAGSGAGAGSGAGAGSALSYPGVGVPGVGVPGVGVPGVGVPGKGVPGVGVPGVGVPGVGVPALSYPGAGAGSGAGAGSGAGAGSGAGAGSALSYPGVGVPGVGVPGVGVPGVGVPGKGVPGVGVPGVGVPGVGVPALSYPGAGAGSGAGAGSGAGAGSGAGAGSALSYPGVGVPGVGVPGVGVPGVGVPGKGVPGVGVPGVGVPGVGVPALSYPGAGAGSGAGAGSGAGAGSGAGAGSALSYPGVGVPGVGVPGVGVPGVGVPGKGVPGVGVPGVGVPGVGVPALSYPGAGAGSGAGAGSGAGAMDPGRYQDLRSHHHHHH
modifications: P4-SELP47K silk, elastin ad UV-protective peptides
viability improvement of UV treated human fibroblast cells: 100%
